This series deals with the molecule itself. Briefly: SEC; 2 mg of protein (20 mg/ml) on a calibrated Superdex 75 column (120 ml), 25 mM pH 8.0 Tris-HCl, 150 mM NaCl, 2 mM DTT. On the technique in general: SEC sorts molecules by how far they enter the pores of the column.

B1: Human SLX4BTB (residues 660–795) (domain or fragment, UniProt Q8IY92 660-795, looked up)
chain: QDKHPDRGGRTLLSLGLLVADFGAMVNNPHLSDVQFQTDSGEVLYAHKFVLYARCPLLIQYVNNEGFSAVEDGVLTQRVLLGDVSTEAARTFLHYLYTADTGLPPGLSSELSSLAHRFGVSELVHLCEQVPIATDS
In the case of B1, the “stoichiometry N” value worked out at 2.

Usually stoichiometry N stands for the number of molecules, sites or subunits per partner or assembly.

Values taken from PMC4889959 (Nucleic Acids Research, 2016).
